# Results taken from the nanobody polyreactivity screen of Harvey et al. (2022).
# Assay: yeast display, Sf9 membrane polyspecificity reagent, FACS + sequencing; frameworks hold sequencing errors
# Procedure, shortened: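 Nanobodies came from a synthetic yeast display library in Saccharomyces cerevisiae BJ5465, induced with galactose for 36–48 hours and stained for 1 hour at 4 °C with 10% biotinylated, detergent-solubilized Sf9 membrane reagent. Cells were enriched on streptavidin microbeads and then FACS-sorted, with low and high (top ~1%) gates set on anti-HA fluorescence for expression and streptavidin fluorescence for reagent binding. Each polyreactivity label reflects the gate a clone came from. Genes were amplified by colony PCR, sequenced by MiSeq 2 × 250 and filtered by CDR length.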
sequence,measurement,value
QVQLVESGGGLVQAGGSLRLSFAASGSIFYYYVMGWYRQAPGKERELVASIRAGGDNTYYADSVKGRFTISRDSAKNTVYLQMNRLKPEDSEVYYCAKSRGRRRLYPHRYGHDYWGQGTQVTVSS,polyreactivity (PSR sort gate),low polyreactivity
QVQLVESGGGLVQAGGSLRLSFAASGSTFSRNTMGWYRQAPGKERELVAAISKSGGRTYYADSVKGRFTISRDNAKNTVYLQINSLKPEDSAVYYCNAAVYAYASDYWGQGTQVTVSS,polyreactivity (PSR sort gate),high polyreactivity
QVQLVESGGGLVQAGGSLRLSFAASGSTFTPNVMGWYRQAPGKERELVAAINSSGGSTFYADSVKGRFTISRDNANNTVYLQMNSLKPEDTAVYYCAASWHTPTVYDEYYYWGQGTQVNVSS,polyreactivity (PSR sort gate),low polyreactivity
QVQLVESGGGLVQAGGSLRLSFAASGSTFYYHAMGWYRQAPGKERELVAAIRSTGSTNYADSVKGRFTISRDNAKNTVYLQMNSLKPEDTAVYYCAARIRRTRGYNYWGQGTQVTVSS,polyreactivity (PSR sort gate),high polyreactivity
QVQLVESGGGLVQAGGSLRLSFDASGLIFWGYAMGWYRQAPGKERELVAAISSSCGSTYYADSVKGRFTISRDNAKNTVYLEMNSLQPEDTAVYYCNADYTYYPGYDFWGQGTQVTVSS,polyreactivity (PSR sort gate),low polyreactivity
QVQLVESGGGLVQAGGSLRLSGAASGFIFGSYAMGWYRQAPGKERELVAAISRSGGRTYYADSVKGRFTISRDNAKNTVYLQMNSLKPEYTAVYYCNAVGYGVFFRSSDRTKFDYWGQGTQVTVSS,polyreactivity (PSR sort gate),high polyreactivity
QVQLVESGGGLVQAGGSLRLSGAASGFIFSYYAMGWYRQAPGKERELVAAITSGGSTNYADSVKGRFTISRDNAKNTVYLQMNSLKPEDTAVYYCNALYHWGYPHEYNYWGQGTQVTVSS,polyreactivity (PSR sort gate),low polyreactivity
QVQLVESGGGLVQAGGSLRLSGAASGRIFGTYDMGWYRQAPGKERELVAAINRSAGSTYYADSVKGRITISRDNAKNTVYLQMNSLKPEDTAVYYCAKQPLLFQYLEYDYWGQGTQVTVSS,polyreactivity (PSR sort gate),low polyreactivity
QVQLVESGGGLVQAGGSLRLSGAASGRTFGYYAMGWYRQAPGKERELVAAISRGGSTYYADSVKGRFTISRDNAKNTVYLQMNSPKPEDTAVYYCAADYWGYGPEMGYWGQGTQVTVSS,polyreactivity (PSR sort gate),low polyreactivity
QVQLVESGGGLVQAGGSLRLSGAASGSTCYYGMGWYRQAPGKYRELVAAISSRGGTPYYADSVKGRFTISRDNAKNTVYLQMTSLKPEDTAVDDCAAPVPYYVPRRNEGDYWGQGTQGTVSS,polyreactivity (PSR sort gate),low polyreactivity
QVQLVESGGGLVQAGGSLRLSSAAAGSTFGRYAMGWYRQAPGKEREFVAAITQGGTNTYYADSVKGRFTISRDNAKNTVYLQMNSLKPEDTAVYYCARVRRYPLRYNYWGQGTQVTVSS,polyreactivity (PSR sort gate),high polyreactivity
QVQLVESGGGLVQAGGSLRLSSAASGFIFDFYTMGWYRQAPGKERELVAAITWSGDSTYYADSVKGRFTISRDNAKNTVYLQMNSLKPEDTAVYYCASDLSYNPGYDYWGQGTQVTVSS,polyreactivity (PSR sort gate),low polyreactivity
QVQLVESGGGLVQAGGSLRLSSAASGFIFFCYTMGWYRQARGKERELVAAISSTGARTYYADSVKGSFTISRDNAKNTVYLQMNSLKPEDTAFYYCAARLSYQGRGYRFWGQGTQVTVSS,polyreactivity (PSR sort gate),high polyreactivity
QVQLVESGGGLVQAGGSLRLSSAASGFIFPAYAMGWYRQAPGKDRELVAAISKSGGRTYYADSVKGRFTISRDNAKNTVYLQMNSLKPEDTAVYYCNKDRYPREQYTWKYAWGYDYWGQGTQVTVSS,polyreactivity (PSR sort gate),high polyreactivity
QVQLVESGGGLVQAGGSLRLSSAASGFILNRNAMGWYRQAPGKVRELVAAISKSGGSTYYADSVKGRFTISRDNAKNTVYLQMNRLKPEDTAVYYCAAYTYLGRYEARRDYWGQGTQVTVSS,polyreactivity (PSR sort gate),high polyreactivity
QVQLVESGGGLVQAGGSLRLSSAASGFILRWYAMGWYRQAPGKERELVAAISWSGGSTYYADSVKGRFTISRDNAKNTVYLQMNSLKPEDTAVYYCNAVNYRNKYDYWGQGTQVTVSS,polyreactivity (PSR sort gate),high polyreactivity
QVQLVESGGGLVQAGGSLRLSSAASGFTFDYYAMGWYRQAPGKERELVAAISTSGGSTYYADSVKGRFTISRDNAKNTVYLQMNSLKPEDTAVYYCNVVFYEYSSVSYDYWGQGTQVTVSS,polyreactivity (PSR sort gate),high polyreactivity
QVQLVESGGGLVQAGGSLRLSSAASGFTFKGNALGWYRQAPGKERELVATITQSAGSTYYADSVKGRFTISRDNAKNTVYLQMNSLKPEDTAVYYCNADPITLYYYSWYNYWGQGTQGTVSS,polyreactivity (PSR sort gate),low polyreactivity
QVQLVESGGGLVQAGGSLRLSSAASGFTFLYNAMGWYRQAPGKERELVASIRTGTGTYYADSVKGRFTISRDNAKNNVYLQMISLKPEDTAVYYCAADYRYKSQWWYRRFDYWGQGTQVNVSS,polyreactivity (PSR sort gate),high polyreactivity
QVQLVESGGGLVQAGGSLRLSSAASGFTFRRYAMGWYRQAPGKERELVAAITNSAGSTYYSDSVKGRFTISRDNAKNTVYLQKNSLKPEDTAVYYCVALRSAGAYDYWGQGTQVTVSS,polyreactivity (PSR sort gate),low polyreactivity
QVQLVESGGGLVQAGGSLRLSSAASGFTFYLNALGGYRQAPGKERELVAAISSSGGITYYADSVKGRFTISRDNAKNTVYLQMNSLKPEYTAVYYCAAYWPKYRYEADRDYWGQGTQVTVSS,polyreactivity (PSR sort gate),low polyreactivity
QVQLVESGGGLVQAGGSLRLSSAASGFTLIPNGMGWYRQAPGKEREFVAAISGTGGRTSYADSVKGRFTISRDNAKNTVYLQMHSLKPEDTAVYYCNARVLVYSERAYKYYLLYDYWGQGTQVTVSS,polyreactivity (PSR sort gate),high polyreactivity
QVQLVESGGGLVQAGGSLRLSSAASGFTLYRNAMGWNRQAPGKEREFVASITRSGGSTSYADSVKGRFTISRDNAKNTVYLQMNSLKPEDTAVYYCAAAYEYYRWPSEYNYWGQGTQVTVSS,polyreactivity (PSR sort gate),low polyreactivity
QVQLVESGGGLVQAGGSLRLSSAASGGIFFYNTMGWYRQAPGKERELVAAITTNGDSTYYADSVKGRFTISRDTAKYTVYLQMNSLKPEDTAVYYCAAGRRWARWLFPSRYDYWGQGTQVTVSS,polyreactivity (PSR sort gate),low polyreactivity
QVQLVESGGGLVQAGGSLRLSSAASGGTFWIYAMGWYRQAPGKERELVSGITTSGATTYYADSVKGRFTISRDNAKNTVYLQMNRLKPEDTAVYYCAADEYYRYEYWGQGTQVTESS,polyreactivity (PSR sort gate),low polyreactivity
QVQLVESGGGLVQAGGSLRLSSAASGIIFAVYAMGWYRQAPGKERELVAAISTSGGRTYYADSVKGRFTISRDNAKNTVYLQMKSLKPEDTAVYYCAAPLRVSYDGMYYWGQGTQVTVSS,polyreactivity (PSR sort gate),high polyreactivity
QVQLVESGGGLVQAGGSLRLSSAASGITFGLYAMGWYRQPPGKERELVADITWSGGSTYYADSVKGRFTISRDNAKNTVYFQMNRLKPEDTAVYYCNADLYADESLFWFALYDYWGQGTQVTVSS,polyreactivity (PSR sort gate),low polyreactivity
QVQLVESGGGLVQAGGSLRLSSAASGITFNLNDMGWSRQAPGKERELVAAITSGGNTSYADSVKGRFTISRDNAKNTVYLQMNSLKPEDTAVYYCPTEDFRTDTGMYYWGQGTQVTVSS,polyreactivity (PSR sort gate),low polyreactivity
QVQLVESGGGLVQAGGSLRLSSAASGITFQAYPMGWYRQAPGKQRELVAAISNGGSTYYADSVKGRFTISRDNAKNTVYLEMNSLNPEDTAVYYCAAVSYYPARYGYWGQGTQVTVSS,polyreactivity (PSR sort gate),high polyreactivity
QVQLVESGGGLVQAGGSLRLSSAASGITYTPNAMGSYRQAPGKEREFVAAISVSGGSTYYADSVKGRFTISRDNAKYTVYLQMNSLKPEDTAVYYCATDFRRYAAKLYRYYYWGLGTQVTVSS,polyreactivity (PSR sort gate),high polyreactivity
QVQLVESGGGLVQAGGSLRLSSAASGLIFVFYAMGWYRQAPGKERELVAAISTSGDRTYYADSVKGRFTISRDNAKNTVYLQMNSLKPEDTAVYYCAAGRRKVPYSREYYYWGQGTQVTVSS,polyreactivity (PSR sort gate),high polyreactivity
